Data published in patent publication US20110104152A1 (Genentech, published 2011).

Tests used:
[1] = target: human FGFR4 polypeptide expressed in transfected rat L6 myoblasts (human, UniProt P22455 22-802); assay: cell-based or functional assay
[2] = target: human FGFR1c polypeptide expressed in transfected rat L6 myoblasts (human, UniProt P11362 22-822); assay: cell-based or functional assay
[3] = target: T1, FGFR4-Fc (recombinant polypeptide comprising a human FGFR4 extracellular domain fused to a human IgG1 Fc … (human, UniProt P22455 22-369)); assay: ELISA, FGFR-Fc captured by anti-human IgG-Fc antibody, 2 µg/mL heparin, no Klotho-beta
T1 construct: extracellular domain; Bought reagent; also called FGFR4 fused to Fc fragment; catalog no; 685-FR-050, R&D Systems; not shown: human IgG1 Fc fragment
T1 sequence (looked up): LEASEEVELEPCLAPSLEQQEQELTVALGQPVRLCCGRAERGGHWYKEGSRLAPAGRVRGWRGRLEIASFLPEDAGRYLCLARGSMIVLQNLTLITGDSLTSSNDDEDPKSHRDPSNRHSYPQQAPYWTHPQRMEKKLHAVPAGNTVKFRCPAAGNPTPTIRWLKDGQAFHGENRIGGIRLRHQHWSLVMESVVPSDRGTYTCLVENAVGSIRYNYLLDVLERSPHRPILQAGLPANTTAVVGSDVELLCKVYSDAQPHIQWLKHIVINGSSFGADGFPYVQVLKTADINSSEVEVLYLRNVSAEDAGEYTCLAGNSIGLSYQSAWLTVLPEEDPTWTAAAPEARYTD
Procedure: Monoclonal antibodies specific for human IgG-Fc fragment (Jackson ImmunoResearch, West Grove, Pa., USA) were immobilized in the wells of Maxisorp™ flat-bottom 96-well plates (Nunc, Thermo Fisher Scientific, Rochester, N.Y.) by overnight incubation with 100 μl per well of 2 μg/ml antibody solution. Each well was then incubated with either 1 μg/ml of FGFR4—Fc (a recombinant polypeptide comprising a human FGFR4 extracellular domain fused to a human IgG₁ Fc fragment; catalog no. 685-FR-050, R&D Systems, Inc., Minneapolis, Minn.) or 1 μg/ml FGFR1c-Fc (a recombinant polypeptide comprising a human FGFR1c extracellular domain fused to a human IgG₁ Fc fragment; catalog no. 658-FR-050, R&D Systems).
The surface-immobilized FGFR4-Fc or FGFR1c-Fc polypeptides were incubated for 1 hr with native human FGF19-Flag polypeptide with a C-terminal epitope tag (See FGF19-Flag in Table 10, SEQ ID NO:237) at concentrations of 1 μg/mL, 0.4 μg/mL, 0.16 μg/mL, 0.064 μg/mL, 0.0256 μg/mL, 0.004096 μg/mL or 0.0016384 μg/mL, each with 2 μg/mL heparin, to allow binding of the FGF19 polypeptide to the receptor domain. […]

human FGFR1c polypeptide expressed in transfected rat L6 myoblasts, sequence (P11362 22-822): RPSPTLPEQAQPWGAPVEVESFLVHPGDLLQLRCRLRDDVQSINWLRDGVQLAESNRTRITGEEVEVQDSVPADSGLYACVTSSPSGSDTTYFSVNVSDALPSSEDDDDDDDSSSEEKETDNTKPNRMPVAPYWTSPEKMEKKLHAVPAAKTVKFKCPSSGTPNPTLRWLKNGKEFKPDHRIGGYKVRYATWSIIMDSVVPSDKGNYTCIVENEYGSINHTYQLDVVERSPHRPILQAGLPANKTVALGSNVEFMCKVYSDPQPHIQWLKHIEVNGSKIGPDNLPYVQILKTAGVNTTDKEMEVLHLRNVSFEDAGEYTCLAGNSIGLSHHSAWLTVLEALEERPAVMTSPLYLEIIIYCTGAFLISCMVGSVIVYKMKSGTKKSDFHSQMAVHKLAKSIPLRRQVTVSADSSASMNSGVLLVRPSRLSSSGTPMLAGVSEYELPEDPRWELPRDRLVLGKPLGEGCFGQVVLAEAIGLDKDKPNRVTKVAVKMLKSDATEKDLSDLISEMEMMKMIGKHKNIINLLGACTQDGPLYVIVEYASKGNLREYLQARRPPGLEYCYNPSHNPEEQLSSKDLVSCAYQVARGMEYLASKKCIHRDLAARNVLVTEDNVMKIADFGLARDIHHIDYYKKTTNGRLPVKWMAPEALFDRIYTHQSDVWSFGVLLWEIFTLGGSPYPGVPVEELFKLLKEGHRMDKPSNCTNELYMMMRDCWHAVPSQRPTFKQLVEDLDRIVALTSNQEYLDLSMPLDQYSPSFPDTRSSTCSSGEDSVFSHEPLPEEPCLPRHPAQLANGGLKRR

EC50 of dose-dependent activation of luciferase (GAL4-Elk1 reporter), L6 cells with FGFR4 and KLB [1]: 269 ng/mL
EC50 of dose-dependent activation of luciferase (GAL4-Elk1 reporter), L6 cells with KLB and FGFR1c [2]: 22.7 ng/mL
B1: chimeric FGF19 polypeptide cFGF21/19-2/Flag (ligand)
chain: HPIPDSSPLLQFGGQVRQRYLYTSGPHGLSSCFLRIRADGVVDCARGQSAHSLLEIKAVALRTVAIKGVHSVRYLCMGADGKMQGLLQYSEEDCAFEEEIRPDGYNVYRSEKHRLPVSLSSAKQRQLYKNRGFLPLSHFLPMLPMVPEEPEDLRGHLESDMFSSPLETDSMDPFGLVTGLEAVRSPSFEKDYKDDDDK
notes: also called chimeric FGF19-Flag polypeptide; FGF19v
binding result [3]: no binding (tested: 1 µg/mL (highest concentration tested))
